Results: PMC12987686 (RSC pharmaceutics, 2025)
Peptide text beside a SMILES is read from it.

Experiments:
[1] = cited from earlier work
in vivo [2] = details: CD1, mouse, iv, total radioactivity
healthy CD1 mice = experiment: in vivo; parameters: species or system mouse; details: mouse
in vivo [3] = experiment: in vivo; parameters: species or system mouse; details: CD1, mouse, iv, total radioactivity
[4] = tested on: CD1 mice with myocardial infarction; details: mouse, in vivo
[5] = Stability in the final formulation by analytical rad-HPLC; format: physicochemical; details: final formulation 10/30/60 v/v/v ethanol/1.0 M sodium acetate/saline, room temperature, mean ± SD, n = 4
[6] = tested on: CD1 mice with myocardial infarction; experiment: in vivo; parameters: species or system mouse; details: mouse
in vivo [7] = experiment: in vivo; parameters: species or system mouse; details: CD1, mouse, iv, total radioactivity; remark: listed apart in the source

CC(C)(C)n1ncc(OCc2ccc(COCC[18F])cc2)c(Cl)c1=O [[^18F]F-flurpiridaz]
first-pass extraction fraction [1]: 94%

[15OH2] [^15O-water]
first-pass extraction fraction [1]: ~ 100%

[82Rb] [^82Rb]
first-pass extraction fraction [1]: ~ 65%

CC(C)C[C@H](NC(=O)[C@H](Cc1c[nH]cn1)NC(=O)[C@H](Cc1c[nH]c2ccccc12)NC(=O)[C@@H]1CCCN1C(=O)[C@H](C)NC(=O)CN1CCN(CC(=O)O)CCN(CC(=O)O)CC1)C(=O)N[C@@H](CO)C(=O)N[C@@H](CO)C(=O)N[C@@H](CCC(N)=O)C(=O)N[C@@H](Cc1ccc(O)cc1)C(=O)N[C@@H](CO)C(=O)N[C@@H](CCCNC(=N)N)C(=O)N[C@H](C(=O)O)[C@@H](C)O [[^68Ga]Ga-NOTA-CTP, metal not drawn] (HELM PEPTIDE1{[O=C(O)CN1CCN(CC(=O)O)CCN(CC(=O)[*:2])CC1].A.P.W.H.L.S.S.Q.Y.S.R.T}$$$$V2.0; N-terminus and C-terminus assumed)
SUV at 2 h (in vivo [2]; SUV Cecum): 2.36 ± 2.24 SUV | SUV at 2 h (in vivo [2]; SUV Heart): 0.02 ± 0.006 SUV | SUV at 2 h (in vivo [2]; SUV Lung): 0.04 ± 0.02 SUV | SUV at 2 h (in vivo [2]; SUV Pancreas): 0.05 ± 0.06 SUV | SUV in left ventricle (LV) vs right ventricle (RV) (healthy CD1 mice): SUV in LV was lower than the RV | time of clearance from the blood (healthy CD1 mice): ≤ 30 min | SUV at 1 h (in vivo [3]; 2.29 MBq, SUV heart): 0.04 ± 0.04 SUV | SUV at 2 h (in vivo [3]; 2.29 MBq, SUV heart): 0.02 ± 0.01 SUV | SUV (in vivo [3]; 2.29 MBq, SUV kidneys): 2.64 ± 0.89 SUV | SUV at 1 h (in vivo [3]; 2.29 MBq, SUV kidneys): 0.92 ± 0.68 SUV | SUV at 2 h (in vivo [3]; 2.29 MBq, SUV kidneys): 0.1 SUV | SUV (in vivo [3]; 2.29 MBq, SUV liver): 1.42 ± 0.49 SUV | SUV at 1 h (in vivo [3]; 2.29 MBq, SUV liver): 0.69 ± 0.32 SUV | SUV at 2 h (in vivo [3]; 2.29 MBq, SUV liver): 0.14 SUV | SUV (in vivo [3]; 2.29 MBq, SUV muscle): 0.36 ± 0.12 SUV | SUV at 1 h (in vivo [3]; 2.29 MBq, SUV muscle): 0.18 ± 0.13 SUV | SUV at 2 h (in vivo [3]; 2.29 MBq, SUV muscle): 0.19 ± 0.18 SUV | SUV (in vivo [3]; 2.29 MBq, SUV urinary bladder): 7.51 ± 3.49 SUV | SUV at 1 h (in vivo [3]; 2.29 MBq, SUV urinary bladder): 10.6 ± 6.1 SUV | SUV at 2 h (in vivo [3]; SUV urinary bladder): 9.02 ± 8.59 SUV | time of clearance from the blood [4]: ≤ 30 min | radiochemical purity in the formulation ([5]; 0 min post-synthesis): 98.78 ± 1.08% | radiochemical purity in the formulation ([5]; 2 h post-synthesis): 92.52 ± 3.66% | SUV Heart [6]: 0.03 ± 0.02 | SUV at 2 h (in vivo [7]; 2.29 MBq, SUV heart): 0.03 ± 0.02 SUV | SUV at 2 h (in vivo [7]; SUV Cecum): 2.28 ± 3.64 SUV | SUV at 2 h (in vivo [7]; SUV Lung): 0.04 ± 0.04 SUV | SUV at 2 h (in vivo [7]; SUV Pancreas): 0.05 ± 0.04 SUV
